Assay results from article PMC7611467 (Journal of molecular biology, 2020).

B1: W37only single-Trp mutant of MgtE (natural protein, Thermus thermophilus, UniProt Q5SMG8 1-450, looked up)
chain: MEEKLAVSLQEALQEGDTRALREVLEEIHPQDLLALWDELKGEHRYVVLTLLPKAKAAEVLSHLSPEEQAEYLKTLPPFRLREILEELSLDDLADALQAVRKEDPAYFQRLKDLLDPRTRAEVEALARYEEDEAGGLMTPEYVAVREGMTVEEVLRFLRRAAPDAETIYYIYVVDEKGRLKGVLSLRDLIVADPRTRVAEIMNPKVVYVRTDTDQEEVARLMADYDFTVLPVVDEEGRLVGIVTVDDVLDVLEAEATEDIHKLGAVDVPDLVYSEAGPVALFLARVRFLVILILTGMVTSSILQGFESVLEAVTALAFYVPVLLGTGGNTGNQSATLIIRALATRDLDLRDFRRVFLKEMGVGLLLGLTLSFLLVGKVYFDGHPLLLPVVGVSLVLIVFFANLVGAMLPFLLRRLGVDPALVSNPLVATLSDVTGLLIYLSVARLLLEAV
B2: W282only single-Trp mutant of MgtE (natural protein, Thermus thermophilus, UniProt Q5SMG8 1-450, looked up)
chain: MEEKLAVSLQEALQEGDTRALREVLEEIHPQDLLALFDELKGEHRYVVLTLLPKAKAAEVLSHLSPEEQAEYLKTLPPFRLREILEELSLDDLADALQAVRKEDPAYFQRLKDLLDPRTRAEVEALARYEEDEAGGLMTPEYVAVREGMTVEEVLRFLRRAAPDAETIYYIYVVDEKGRLKGVLSLRDLIVADPRTRVAEIMNPKVVYVRTDTDQEEVARLMADYDFTVLPVVDEEGRLVGIVTVDDVLDVLEAEATEDIHKLGAVDVPDLVYSEAGPVALWLARVRFLVILILTGMVTSSILQGFESVLEAVTALAFYVPVLLGTGGNTGNQSATLIIRALATRDLDLRDFRRVFLKEMGVGLLLGLTLSFLLVGKVYFDGHPLLLPVVGVSLVLIVFFANLVGAMLPFLLRRLGVDPALVSNPLVATLSDVTGLLIYLSVARLLLEAV
B3: W79only single-Trp mutant of MgtE (natural protein, Thermus thermophilus, UniProt Q5SMG8 1-450, looked up)
chain: MEEKLAVSLQEALQEGDTRALREVLEEIHPQDLLALFDELKGEHRYVVLTLLPKAKAAEVLSHLSPEEQAEYLKTLPPWRLREILEELSLDDLADALQAVRKEDPAYFQRLKDLLDPRTRAEVEALARYEEDEAGGLMTPEYVAVREGMTVEEVLRFLRRAAPDAETIYYIYVVDEKGRLKGVLSLRDLIVADPRTRVAEIMNPKVVYVRTDTDQEEVARLMADYDFTVLPVVDEEGRLVGIVTVDDVLDVLEAEATEDIHKLGAVDVPDLVYSEAGPVALFLARVRFLVILILTGMVTSSILQGFESVLEAVTALAFYVPVLLGTGGNTGNQSATLIIRALATRDLDLRDFRRVFLKEMGVGLLLGLTLSFLLVGKVYFDGHPLLLPVVGVSLVLIVFFANLVGAMLPFLLRRLGVDPALVSNPLVATLSDVTGLLIYLSVARLLLEAV
B4: W352only single-Trp mutant of MgtE (natural protein, Thermus thermophilus, UniProt Q5SMG8 1-450, looked up)
chain: MEEKLAVSLQEALQEGDTRALREVLEEIHPQDLLALFDELKGEHRYVVLTLLPKAKAAEVLSHLSPEEQAEYLKTLPPFRLREILEELSLDDLADALQAVRKEDPAYFQRLKDLLDPRTRAEVEALARYEEDEAGGLMTPEYVAVREGMTVEEVLRFLRRAAPDAETIYYIYVVDEKGRLKGVLSLRDLIVADPRTRVAEIMNPKVVYVRTDTDQEEVARLMADYDFTVLPVVDEEGRLVGIVTVDDVLDVLEAEATEDIHKLGAVDVPDLVYSEAGPVALFLARVRFLVILILTGMVTSSILQGFESVLEAVTALAFYVPVLLGTGGNTGNQSATLIIRALATRDLDLRDWRRVFLKEMGVGLLLGLTLSFLLVGKVYFDGHPLLLPVVGVSLVLIVFFANLVGAMLPFLLRRLGVDPALVSNPLVATLSDVTGLLIYLSVARLLLEAV
B5: W380only single-Trp mutant of MgtE (natural protein, Thermus thermophilus, UniProt Q5SMG8 1-450, looked up)
chain: MEEKLAVSLQEALQEGDTRALREVLEEIHPQDLLALFDELKGEHRYVVLTLLPKAKAAEVLSHLSPEEQAEYLKTLPPFRLREILEELSLDDLADALQAVRKEDPAYFQRLKDLLDPRTRAEVEALARYEEDEAGGLMTPEYVAVREGMTVEEVLRFLRRAAPDAETIYYIYVVDEKGRLKGVLSLRDLIVADPRTRVAEIMNPKVVYVRTDTDQEEVARLMADYDFTVLPVVDEEGRLVGIVTVDDVLDVLEAEATEDIHKLGAVDVPDLVYSEAGPVALFLARVRFLVILILTGMVTSSILQGFESVLEAVTALAFYVPVLLGTGGNTGNQSATLIIRALATRDLDLRDFRRVFLKEMGVGLLLGLTLSFLLVGKVYWDGHPLLLPVVGVSLVLIVFFANLVGAMLPFLLRRLGVDPALVSNPLVATLSDVTGLLIYLSVARLLLEAV
B6: W288only single-Trp mutant of MgtE (natural protein, Thermus thermophilus, UniProt Q5SMG8 1-450, looked up)
chain: MEEKLAVSLQEALQEGDTRALREVLEEIHPQDLLALFDELKGEHRYVVLTLLPKAKAAEVLSHLSPEEQAEYLKTLPPFRLREILEELSLDDLADALQAVRKEDPAYFQRLKDLLDPRTRAEVEALARYEEDEAGGLMTPEYVAVREGMTVEEVLRFLRRAAPDAETIYYIYVVDEKGRLKGVLSLRDLIVADPRTRVAEIMNPKVVYVRTDTDQEEVARLMADYDFTVLPVVDEEGRLVGIVTVDDVLDVLEAEATEDIHKLGAVDVPDLVYSEAGPVALFLARVRWLVILILTGMVTSSILQGFESVLEAVTALAFYVPVLLGTGGNTGNQSATLIIRALATRDLDLRDFRRVFLKEMGVGLLLGLTLSFLLVGKVYFDGHPLLLPVVGVSLVLIVFFANLVGAMLPFLLRRLGVDPALVSNPLVATLSDVTGLLIYLSVARLLLEAV

Target: the molecule itself
Assay: SEC

Binding result, binds:
B1, B2, B3, B4, B5, B6
